Where two headings read alike, the source gives them in different places.
Key:
[1] = Serum stability in human serum; type: in vitro ADME; conditions: 37 °C, ethanol precipitation, radio RP-HPLC
Protocol: The serum stability of [^64Cu]PDC-1 was measured in both human and mouse serum at 37 °C at 1, 4, and 24 h.
Mouse serum or human serum (0.5 mL) was combined with an aliquot of [^64Cu]PDC-1 (≤25 μL, 3.9–4.7 MBq) and incubated at 37 °C. At each time point (1, 4, and 24 h), an aliquot (50–200 μL) was taken, proteins precipitated with absolute ethanol and removed by centrifugation at 1500g for 4 min. The ethanol solution was diluted with water (1 mL) and analyzed by RP-HPLC.

[2] = Biodistribution, BxPC-3 pancreatic xenograft tumor mouse model; type: in vivo, mice; conditions: female, athymic nude, iv, total radioactivity, γ-counter, mean ± SD; for tissue uptake at 4 h / tissue uptake at 24 h / tissue uptake at 48 h: i.v.
Protocol: All animal procedures conformed to the Animal Welfare Act and were approved by the University of California Davis Institutional Animal Care and Use Committee. All mice used for in vivo work were female athymic nude mice (6–8 weeks old) purchased from Charles River Laboratories (Wilmington, MA). For PET imaging and biodistribution studies, female athymic nude mice (6–8 weeks old) were injected subcutaneously with 3 × 10^6 DX3puro and 3 × 10^6 DX3puroβ6 cells in serum free DMEM on the right and left flank, respectively, or with 5 × 10^6 BxPC-3 cells in serum free RPMI 1640/Matrigel (1/1 v/v). Studies commenced once tumors reached a maximum diameter of ∼0.5 cm, approximately 3 weeks after inoculation. Food and water were available ad libitum. [^64Cu]PDC-1 was formulated in isotonic 0.9% saline to pH = 7.2 and administered intravenously (i.v.) via a catheter into the tail vein.
Aliquots of the formulated [^64Cu]PDC-1 in isotonic 0.9% saline (4.81–5.74 MBq, 1.7–2.1 μg, 0.26–0.31 nmol, 100 μL, pH 7.2) were injected i.v. as described above. Following the conscious uptake period, the mice were anesthetized (5% isoflurane), euthanized, and dissected (n ≥ 3/model/time point [4, 24, and 48 h]; the 48 h time point also included the imaging animals sacrificed after the PET scans). Tissues were collected, washed, weighed, and radioactivity measured in a γ-counter. Calibrated, decay-corrected radioactivity was expressed as the percentage of injected dose per gram of tissue (% ID/g). Data are reported as mean ± SD. […] For in vivo blocking studies, DOTA-2 (50 mg/kg, 205 nmol, 1.4 mg in 100 μL 0.9% saline) was injected i.v. into two animals/tumor model 10 min prior to [^64Cu]PDC-1. The animals were sacrificed after 4 h, tissues collected, washed, weighed, and radioactivity measured in a γ-counter.
Biodistribution data of [64Cu]PDC-1 in BxPC-3 tumor model.
Table S4. Biodistribution of [ 64Cu]PDC-1 in mice bearing a BxPC-3 xenograft tumor. Tissue uptake is
expressed as the mean of the percentage of injected dose per gram of tissue ± standard deviation (n = 4/
time point; n = 6 at 48 h); an = 3, bn = 5.

CC[C@H](C)[C@@H]([C@@H](CC(=O)N1CCC[C@H]1[C@H](OC)[C@@H](C)C(=O)N[C@H](C)[C@@H](O)c1ccccc1)OC)N(C)C(=O)[C@@H](NC(=O)[C@H](C(C)C)N(C)C(=O)OCc1ccc(NC(=O)[C@H](CCCNC(N)=O)NC(=O)[C@@H](NC(=O)CCOCCOCCNC(=O)CCN2C(=O)CC(SC[C@H](NC(=O)CN3CCN(CC(=O)O)CCN(CC(=O)O)CCN(CC(=O)O)CC3)C(=O)NCCOCCOCCOCCOCCOCCOCCOCCOCCOCCOCCOCCOCCOCCOCCOCCOCCOCCOCCOCCOCCOCCOCCOCCOCCOCCOCCOCCOCCC(=O)N[C@@H](CC(N)=O)C(=O)N[C@@H](C)C(=O)N[C@H](C(=O)N3CCC[C@H]3C(=O)N[C@@H](CC(N)=O)C(=O)N[C@@H](CC(C)C)C(=O)N[C@@H](CCCNC(=N)N)C(=O)NCC(=O)N[C@@H](CC(=O)O)C(=O)N[C@@H](CC(C)C)C(=O)N[C@@H](CCC(N)=O)C(=O)N[C@H](C(=O)N[C@@H](CC(C)C)C(=O)N[C@@H](C)C(=O)N[C@@H](CCC(N)=O)C(=O)N[C@@H](CCCNC(=N)N)C(=O)N[C@H](C(=O)N[C@@H](C)C(=O)N[C@@H](CCCNC(=N)N)C(=O)N[C@H](C(=O)NCCOCCOCCOCCOCCOCCOCCOCCOCCOCCOCCOCCOCCOCCOCCOCCOCCOCCOCCOCCOCCOCCOCCOCCOCCOCCOCCOCCOCCC(N)=O)[C@@H](C)O)C(C)C)C(C)C)C(C)C)C2=O)C(C)C)cc1)C(C)C (stereo partly drawn) [[^64Cu]PDC-1, metal not drawn]
remaining at 1 h ([1]; 1 h): > 98%
remaining at 4 h ([1]; 4 h): > 98%
remaining at 24 h ([1]; 24 h): 89%
tissue uptake at 4 h ([2]; BxPC-3 (αvβ6 +) tumor, 4 h p.i., n = 3, read-out: BxPC-3 (αvβ6 +) tumor uptake): 4.61 ± 1.44 %ID/g
tissue uptake at 24 h ([2]; BxPC-3 (αvβ6 +) tumor, 24 h p.i., n = 4, read-out: BxPC-3 (αvβ6 +) tumor uptake): 3.73 ± 0.44 %ID/g
tissue uptake at 48 h ([2]; BxPC-3 (αvβ6 +) tumor, 48 h p.i., n = 6, read-out: BxPC-3 (αvβ6 +) tumor uptake): 2.93 ± 0.8 %ID/g
tissue uptake at 4 h ([2]; bladder, 4 h p.i., n = 4, read-out: Bladder uptake): 2.06 ± 0.2 %ID/g
tissue uptake at 24 h ([2]; bladder, 24 h p.i., n = 4, read-out: Bladder uptake): 1.84 ± 0.45 %ID/g
tissue uptake at 48 h ([2]; bladder, 48 h p.i., n = 6, read-out: Bladder uptake): 1.28 ± 0.46 %ID/g
tissue uptake at 4 h ([2]; blood, 4 h p.i., n = 4, read-out: Blood uptake): 0.13 ± 0.02 %ID/g
tissue uptake at 24 h ([2]; blood, 24 h p.i., n = 4, read-out: Blood uptake): 0.31 ± 0.04 %ID/g
tissue uptake at 48 h ([2]; blood, 48 h p.i., n = 6, read-out: Blood uptake): 0.28 ± 0.04 %ID/g
tissue uptake at 4 h ([2]; bone, 4 h p.i., n = 4, read-out: Bone uptake): 0.36 ± 0.1 %ID/g
tissue uptake at 24 h ([2]; bone, 24 h p.i., n = 4, read-out: Bone uptake): 0.43 ± 0.03 %ID/g
tissue uptake at 48 h ([2]; bone, 48 h p.i., n = 6, read-out: Bone uptake): 0.23 ± 0.11 %ID/g
tissue uptake at 4 h ([2]; brain, 4 h p.i., n = 4, read-out: Brain uptake): 0.04 %ID/g
tissue uptake at 24 h ([2]; brain, 24 h p.i., n = 4, read-out: Brain uptake): 0.08 ± 0.01 %ID/g
tissue uptake at 48 h ([2]; brain, 48 h p.i., n = 6, read-out: Brain uptake): 0.08 ± 0.03 %ID/g
tissue uptake at 4 h ([2]; gall bladder, 4 h p.i., n = 4, read-out: Gall bladder uptake): 3.99 ± 1.49 %ID/g
tissue uptake at 24 h ([2]; gall bladder, 24 h p.i., n = 4, read-out: Gall bladder uptake): 2.88 ± 1.31 %ID/g
tissue uptake at 48 h ([2]; gall bladder, 48 h p.i., n = 6, read-out: Gall bladder uptake): 1.46 ± 1.09 %ID/g
tissue uptake at 4 h ([2]; heart, 4 h p.i., n = 4, read-out: Heart uptake): 0.79 ± 0.11 %ID/g
tissue uptake at 24 h ([2]; heart, 24 h p.i., n = 4, read-out: Heart uptake): 0.89 ± 0.13 %ID/g
tissue uptake at 48 h ([2]; heart, 48 h p.i., n = 6, read-out: Heart uptake): 0.79 ± 0.07 %ID/g
tissue uptake at 4 h ([2]; kidney, 4 h p.i., n = 4, read-out: Kidney uptake): 50.4 ± 3.08 %ID/g
tissue uptake at 24 h ([2]; kidney, 24 h p.i., n = 4, read-out: Kidney uptake): 41.6 ± 11.8 %ID/g
tissue uptake at 48 h ([2]; kidney, 48 h p.i., n = 6, read-out: Kidney uptake): 21.5 ± 7.01 %ID/g
tissue uptake at 4 h ([2]; large intestines, 4 h p.i., n = 4, read-out: Lg. Intestines uptake): 5.49 ± 0.47 %ID/g
tissue uptake at 24 h ([2]; large intestines, 24 h p.i., n = 4, read-out: Lg. Intestines uptake): 5.21 ± 0.82 %ID/g
tissue uptake at 48 h ([2]; large intestines, 48 h p.i., n = 6, read-out: Lg. Intestines uptake): 2.78 ± 1.08 %ID/g
tissue uptake at 4 h ([2]; liver, 4 h p.i., n = 4, read-out: Liver uptake): 1.51 ± 0.29 %ID/g
tissue uptake at 24 h ([2]; liver, 24 h p.i., n = 4, read-out: Liver uptake): 1.95 ± 0.33 %ID/g
tissue uptake at 48 h ([2]; liver, 48 h p.i., n = 6, read-out: Liver uptake): 1.8 ± 0.3 %ID/g
tissue uptake at 4 h ([2]; lung, 4 h p.i., n = 4, read-out: Lung uptake): 2.44 ± 0.3 %ID/g
tissue uptake at 24 h ([2]; lung, 24 h p.i., n = 4, read-out: Lung uptake): 2.3 ± 0.04 %ID/g
tissue uptake at 48 h ([2]; lung, 48 h p.i., n = 6, read-out: Lung uptake): 1.67 ± 0.42 %ID/g
tissue uptake at 4 h ([2]; muscle, 4 h p.i., n = 4, read-out: Muscle uptake): 0.8 ± 0.09 %ID/g
tissue uptake at 24 h ([2]; muscle, 24 h p.i., n = 4, read-out: Muscle uptake): 0.68 ± 0.06 %ID/g
tissue uptake at 48 h ([2]; muscle, 48 h p.i., n = 6, read-out: Muscle uptake): 0.44 ± 0.09 %ID/g
tissue uptake at 4 h ([2]; pancreas, 4 h p.i., n = 4, read-out: Pancreas uptake): 0.32 ± 0.09 %ID/g
tissue uptake at 24 h ([2]; pancreas, 24 h p.i., n = 4, read-out: Pancreas uptake): 0.46 ± 0.04 %ID/g
tissue uptake at 48 h ([2]; pancreas, 48 h p.i., n = 6, read-out: Pancreas uptake): 0.47 ± 0.06 %ID/g
tissue uptake at 4 h ([2]; skin, 4 h p.i., n = 4, read-out: Skin uptake): 1.92 ± 0.5 %ID/g
tissue uptake at 24 h ([2]; skin, 24 h p.i., n = 4, read-out: Skin uptake): 1.41 ± 0.25 %ID/g
tissue uptake at 48 h ([2]; skin, 48 h p.i., n = 6, read-out: Skin uptake): 0.79 ± 0.19 %ID/g
tissue uptake at 4 h ([2]; small intestines, 4 h p.i., n = 4, read-out: Sm. Intestines uptake): 3.98 ± 0.54 %ID/g
tissue uptake at 24 h ([2]; small intestines, 24 h p.i., n = 4, read-out: Sm. Intestines uptake): 2.85 ± 0.31 %ID/g
tissue uptake at 48 h ([2]; small intestines, 48 h p.i., n = 6, read-out: Sm. Intestines uptake): 1.5 ± 0.23 %ID/g
tissue uptake at 4 h ([2]; spleen, 4 h p.i., n = 4, read-out: Spleen uptake): 0.19 ± 0.02 %ID/g
tissue uptake at 24 h ([2]; spleen, 24 h p.i., n = 4, read-out: Spleen uptake): 0.52 ± 0.09 %ID/g
tissue uptake at 48 h ([2]; spleen, 48 h p.i., n = 6, read-out: Spleen uptake): 0.43 ± 0.08 %ID/g
tissue uptake at 4 h ([2]; stomach, 4 h p.i., n = 4, read-out: Stomach uptake): 8.73 ± 0.66 %ID/g
tissue uptake at 24 h ([2]; stomach, 24 h p.i., n = 4, read-out: Stomach uptake): 5.94 ± 0.9 %ID/g
tissue uptake at 48 h ([2]; stomach, 48 h p.i., n = 6, read-out: Stomach uptake): 2.78 ± 0.79 %ID/g
excreta dose per gram or mL at 4 h ([2]; urine, 4 h p.i., n = 4): 15.3 ± 1.2 %ID/g
excreta dose per gram or mL at 24 h ([2]; urine, 24 h p.i., n = 4): 4.81 ± 0.84 %ID/g
excreta dose per gram or mL at 48 h ([2]; urine, 48 h p.i., n = 5): 2.04 ± 0.97 %ID/g
